Data published in paper PMC3288383 (Journal of Molecular Biology, 2012).
Several values for one entry are separate records, joined by “and”; a condition that tells them apart may be missing. Equal entries are not always repeated. Blank lines part the entries; values can stand above or below the binder they belong to.

Legend:
[1] = molecular target: T1, Jac1_(L106) (S. cerevisiae, UniProt P53193 11-184, L106 to Ala); experiment: pull-down
T1 sequence (looked up): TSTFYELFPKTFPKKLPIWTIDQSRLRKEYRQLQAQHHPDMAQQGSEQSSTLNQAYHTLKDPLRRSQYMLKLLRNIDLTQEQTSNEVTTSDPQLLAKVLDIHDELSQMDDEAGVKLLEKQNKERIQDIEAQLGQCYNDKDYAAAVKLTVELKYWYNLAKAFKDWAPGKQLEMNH

[2] = molecular target: T2, Jac1 (wild type), His-tagged (S. cerevisiae, UniProt P53193 11-184); experiment: pull-down
T2 sequence (looked up): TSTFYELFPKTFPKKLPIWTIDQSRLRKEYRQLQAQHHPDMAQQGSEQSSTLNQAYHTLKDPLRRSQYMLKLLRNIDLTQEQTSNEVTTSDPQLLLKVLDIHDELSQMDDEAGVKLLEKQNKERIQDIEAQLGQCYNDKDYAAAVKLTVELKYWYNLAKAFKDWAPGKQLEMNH

[3] = molecular target: T3, Isu1His (S. cerevisiae, UniProt Q03020 28-165); experiment: cell-based or functional assay
T3 sequence (looked up): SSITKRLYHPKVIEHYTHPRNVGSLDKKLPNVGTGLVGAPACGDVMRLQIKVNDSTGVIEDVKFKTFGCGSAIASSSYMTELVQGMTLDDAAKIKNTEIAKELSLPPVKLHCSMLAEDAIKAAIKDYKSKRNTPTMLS

Kd [1]: 0.25 ± 0.07 µM
Kd [2]: 0.69 µM and 0.8 µM
B1: Isu1-GST (natural protein, S. cerevisiae, UniProt Q03020 28-165, looked up)
chain: SSITKRLYHPKVIEHYTHPRNVGSLDKKLPNVGTGLVGAPACGDVMRLQIKVNDSTGVIEDVKFKTFGCGSAIASSSYMTELVQGMTLDDAAKIKNTEIAKELSLPPVKLHCSMLAEDAIKAAIKDYKSKRNTPTMLS

stimulation of Ssq1 ATPase activity: increase of C0.5 against wt [3]: ~15 fold
B2: Jac1Y (natural protein, S. cerevisiae, UniProt P53193 11-184, looked up)
chain: TSTFYELFPKTFPKKLPIWTIDQSRLRKEYRQLQAQHHPDMAQQGSEQSSTLNQAYHTLKDPLRRSQYMLKLLRNIDLTQEQTSNEVTTSDPQLLLKVLDIHDELSQMDDEAGVKLLEKQNKERIQDIEAQLGQCYNDKDYAAAVKLTVELKAWYNLAKAFKDWAPGKQLEMNH

stimulation of Ssq1 ATPase activity: C0.5 compared to the wt control [3]: ~24 fold
B3: Jac1LLL (natural protein, S. cerevisiae, UniProt P53193 11-184, looked up)
chain: TSTFYELFPKTFPKKLPIWTIDQSRLRKEYRQLQAQHHPDMAQQGSEQSSTLNQAYHTLKDPLRRSQYMLKLLRNIDLTQEQTSNEVTTSDPQLAAKVADIHDELSQMDDEAGVKLLEKQNKERIQDIEAQLGQCYNDKDYAAAVKLTVELKYWYNLAKAFKDWAPGKQLEMNH
